For the assay, the target named is αvβ3 and α5β1 integrins presented on adjacent cells. Kind of assay: cell-based or functional assay.

B1: wild-type VCIP/PAP2b, HA-tagged, expressed from pLNCX2-VCIP-RGD, O14495 1-311 (protein)
chain: YPYDVPDYAYPYDVPDYAYPYDVPDYAMQNYKYDKAIVPESKNGGSPALNNNPRRSGSKRVLLICLDLFCLFMAGLPFLIIETSTIKPYHRGFYCNDESIKYPLKTGETINDAVLCAVGIVIAILAIITGEFYRIYYLKKSRSTIQNPYVAALYKQVGCFLFGCAISQSFTDIAKVSIGRLRPHFLSVCNPDFSQINCSEGYIQNYRCRGDDSKVQEARKSFFSGHASFSMYTMLYLVLYLQARFTWRGARLLRPLLQFTLIMMAFYTGLSRVSDHKHHPSDVLAGFAQGALVACCIVFFVSDLFKTKTTLSLPAPAIRKEILSPVDIIDRNNHHNMM
As for B1, the % cell aggregates, HEK cells stably expressing pLNCX2-VCIP-RGD (WT), no substance was determined as 94%.

B2: mutant VCIP/PAP2b-RGE, HA-tagged, expressed from pLNCX2-VCIP-RGE, O14495 1-311 (protein)
chain: YPYDVPDYAYPYDVPDYAYPYDVPDYAMQNYKYDKAIVPESKNGGSPALNNNPRRSGSKRVLLICLDLFCLFMAGLPFLIIETSTIKPYHRGFYCNDESIKYPLKTGETINDAVLCAVGIVIAILAIITGEFYRIYYLKKSRSTIQNPYVAALYKQVGCFLFGCAISQSFTDIAKVSIGRLRPHFLSVCNPDFSQINCSEGYIQNYRCRGEDSKVQEARKSFFSGHASFSMYTMLYLVLYLQARFTWRGARLLRPLLQFTLIMMAFYTGLSRVSDHKHHPSDVLAGFAQGALVACCIVFFVSDLFKTKTTLSLPAPAIRKEILSPVDIIDRNNHHNMM
Turning to B2, the % cell aggregates, HEK cells stably expressing pLNCX2-VCIP-RGE (MT), no substance amounted to 0%.

Turning to NYRCRGDDSK [peptide …], the % cell aggregates of WT cells with … 10 nM is 67%, the % cell aggregates of WT cells with … 30 nM came to 46% and the % cell aggregates of WT cells with … 50 nM was 28%.

As to NYRCRADDSK [mutant peptide …], the % cell aggregates of WT cells with … 10 nM came to 92%, the % cell aggregates of WT cells with … 30 nM was determined as 89% and the % cell aggregates of WT cells with … 50 nM is 90%.

The values are drawn from patent US20050002904A1, “Uses of vascular endothelial growth factor and type I collagen inducible protein (VCIP)” (priority 2003, published 2005).
